Measurements published in paper PMC8126837 (Proceedings of the National Academy of Sciences of the …, 2021).

Key:
[1] = biological target: T1, SARS-CoV receptor-binding domain (RBD) (SARS-CoV, UniProt P59594); experiment: ELISA; conditions: both partners purified
T1 construct: source: recombinant, purified

[2] = biological target: SARS-CoV-2 receptor-binding domain (RBD), wild type (SARS-CoV-2, UniProt P0DTC2, DyLight 488 (NHS ester, about 1.9 dye/protein) in the FRET assay only); experiment: BLI; conditions: both partners purified

B1: WNb 23 (VHH)
VHH: QVQLQESGGGLVQPGGSLRLSCAASGFTFKDYAMAWARQVPGKGLEWVSGIYSDGNTYYADSVKGRFTISRDNAKNTVYLRMNSLKPEDTAVYYCATERHPQGAADFGSWGQGTQVTVSS
notes: source: expressed and purified
B1: binds [1].

B2: WNb 21 (VHH)
VHH: QVQLQESGGGLVQAGGSLTLTCAASERTFGRYVLAWFRQAPGKERELVARISRSTGSTFHADFVLGRFTISRDNAKNTVYLTMNNLKPEDTAVYYCAADKDGGLEYDYWGQGTQVTVSS
notes: as for B1
B2: binds [1].

B3: WNb 15 (VHH)
VHH: QVQLQESGGGLVQPGGSLRLSCAASGFTFSSYLMGWFRQVPGKGLEWVSGIYSDGGTYYADSVKGRFTISRDNAKNTVYLQMNSLKPEDTAVYYCATDRMEGSSWPERDFGSWGQGTQVTVSS
Binder B3 has a Kd [2] of less than 0.5 nM.

B4: WNb 36 (VHH)
VHH: QVQLQESGGGLVQPGGSLRLSCAVSGFTLDYYAIGWFRQAPGKEREGVSCISNSGGNTKYADSVKGRFTTSVDNAQNTVYLLMNSLEPEDTAVYYCAAIAATYYSGTYYYQCPHYGMDYWGKGTQVTVSS
For B4, the Kd [2] was less than 0.5 nM.
